Laboratory results published in patent US20260102528A1 (University of California, published 2026).
Each block holds one binder with its values, some of them ahead of it.

Experiments:
[1] = molecular target: T1, V7-AMG510 HLA-A*03:01 MHC-I complex (human); assay: BLI (Octet), derived from FIG. 3A; biotinylated MHC-I complex on streptavidin biosensor
T1 construct: also called V7-Sotorasib A*03:01; V7-510 A*03:01
Method: (§1) Kinetic measurements via Octet. Kinetic constants for Fabs were determined using an Octet RED384 instrument (ForteBio). For screens, a single concentration of Fab (100 nM) was tested, and for kinetic characterization Fabs were tested at several concentrations, as noted in the relevant figure. Biotinylated peptides (1 μM in 1% BSA/PBS) or biotinylated MHC-I complexes (200 nM in 1% BSA/PBS) were immobilized on ForteBio streptavidin SA biosensors for all assays. All measurements were performed in 1% BSA PBS pH 7.4 in 384 well plates. Data were analyzed using a 1:1 interaction model with global fitting on the ForteBio data analysis software (9.0.0.6). KD values were determined by the fitting of either equilibrium or maximum response (nm) as a function of Fab concentration.

[2] = molecular target: T1, V7-AMG510 HLA-A*03:01 MHC-I complex; assay: competition ELISA: the concentration is that of free AMG510 (small molecule, the varied competitor) preincubated with the Fab; read-out is Fab binding to streptavidin-captured V7-AMG510 HLA-A*03:01, anti-myc IgG-HRP; legend calls the values approximate
Method: FIG. 3A-3D show characterizations of six V7-AMG510 A*03:01-reactive Fabs. […] Approximate IC₅₀ values for free drug (AMG510) competition for each clone are reported, as derived from FIG. 3C. […] Recombinant V7-AMG510 HLA-A*03:01 was captured via streptavidin in an ELISA and increasing amounts of free AMG510 preincubated with the indicated clones in Fab format before detection of Fab binding with an anti-myc secondary IgG-HRP conjugate. Data are presented as the mean #standard deviation of three replicates. […] Data are presented as the mean±standard deviation of four replicates.

[3] = molecular target: T2, V7-ARS1620 HLA-A*03:01 MHC-I complex (human); assay: competition ELISA: the concentration is that of free ARS1620 (small molecule, the varied competitor); read-out is P2B2 IgG-HRP binding to W6/32-captured A*03:01/V7-ARS
T2 construct: also called V7-ARS HLA-A*03:01; V7-ARS A*03:01
Method: The complexes were captured by the conformation-specific antibody W6/32 and detected by the ARS1620-specific antibody (P1A4) in the presence of various amounts of free ARS1620. Data is presented as mean±standard deviation for four replicates.
MHC-I refolding and purification. […] Refolding reactions were performed with various peptides of interest in refolding buffer (100 mM Tris pH 8.0, 400 mM L-Arginine.HCl, 5 mM reduced glutathione, 0.5 mM oxidized glutathione, 2 mM EDTA, and complete protease inhibitor cocktail (Roche)). Briefly, B2m (2 μM) and peptide (10 μM) were diluted into refolding buffer, then denatured heavy chain was added to 1 μM. Reactions proceeded at 10° C. overnight for ELISA assays. MHC-I ELISAs. Black, 384 well Nunc Maxisorp plates were coated with 50 μL of the anti-heavy chain antibody W6/32 (Bio X Cell Cat #BE0079, RRID:AB_1107730) at 5 μg/mL in PBS overnight. The plate was washed twice with PBS (100 μL) and blocked with 3% BSA PBS (120 μL) for 1 hour at room temperature. Plates were then washed three times with 0.05% Tween-20 PBS (PBST) (100 μL). Refolded MHC complexes (crude or FPLC purified) were diluted 10× into 1% BSA PBS and 50 μL added to wells in quadruplicate. Plates were incubated at room temperature with shaking for 1 hour, then washed three times with 1% BSA PBS (100 μL).

[4] = molecular target: T3, K5-ARS1620 HLA-A*02:01 MHC-I complex (human); assay: BLI (Octet), Fab on immobilised biotinylated pMHC
T3 construct: also called K5-ARS HLA-A*02:01
Method: as §1

[5] = molecular target: T2, V7-ARS1620 HLA-A*03:01 MHC-I complex; assay: BLI (Octet), Fab on immobilised biotinylated pMHC
Method: as §1

[6] = molecular target: T1, V7-AMG510 HLA-A*03:01 MHC-I complex; assay: BLI, Fab on pMHC
Method: as §1

[7] = molecular target: T1, V7-AMG510 HLA-A*03:01 MHC-I complex; assay: BLI (Octet), Fab on immobilised biotinylated pMHC
Method: as §1

B5: P1B7 Fab (Fab, V domains shown)
VH: QVQLQQSGPGLVKPSQTLSLTCAISGDSVSSNSVAWNWIRQSPSRGLEWLGRTYYRSKWYSDYAVSVKSRITINPDTSKNQFSLQLTSMTPEDTAVYYCAREGVTMGPGAFDIWGQGTMVTVSS
VL: QSALTQPPSVSGSPGQSVTISCTGSSSDVGHYNRVSWYQQSPGTAPKLMIYDVSNRPSGAFSRFSGSRSGNTASLTISGLQPEDEADYYCSSHRTGYTVEVFGTGTKVTVLG
Kd [6]: 15 nM

B6: P1C10 Fab (Fab, V domains shown)
VH: QVQLVQSGGGLVKPGGSLRLSCAASGFTFSSYSMNWVRQAPGKGLEWVSYISSRGRTIYYADSVKGRFTISRDNAKNSLYLQMNSLRAEDTAVYYCVRDVPGVWGFAYWGQGTLVTVSS
VL: QSVVTQPPSVSAAPGQKVTISCSGSSSNIGNHYVSWYQQLPGTAPKLLIYDDGKRPSGIPDRFSGSKSGTSATLGITGLQTGDEADYYCATWDNSLSVVLFGGGTKLTVLG
Kd [4]: 320 nM | Kd [5]: 59 nM

B7: P1E5 Fab (Fab, V domains shown)
VH: QVQLQESGGGVVQPGRSLRLSCAASGFTFSSYEMNWVRQAPGKGLEWVAVISYDGSNKYYADSVKGRFTISRDNSKNTLYLQMNSLRAEDTAVYYCARDAYSGWFDYWGQGTLVTVSS
VL: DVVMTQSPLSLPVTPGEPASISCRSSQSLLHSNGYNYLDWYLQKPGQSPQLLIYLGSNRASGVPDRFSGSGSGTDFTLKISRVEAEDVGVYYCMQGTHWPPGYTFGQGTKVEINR
AMG510 IC50 [2]: ~200 nM | Kd [7]: 13 nM

B8: P1H4 Fab (Fab, V domains shown)
VH: EVQLVQSGAEVKKPGSSVKVSCKASGGTFSSYAISWVRQAPGQGLEWMGGIIPIFGTANYAQKFQGRVTITADKSTSTAYMELSSLRSEDTAVYYCAFNYYDSSGYSDYWGQGTLVTVSS
VL: ETTLTQSPGTLSLSPGERATLSCRASQSVSSSYLAWYQQKPGQAPRLLIYGASSRATGIPDRFSGSGSGTDFTLTISRLEPGDFAVYYCQQYGTSPITFGQGTRLEIKR
Kd [1]: 59 nM | AMG510 IC50 [2]: ~930 nM

Results, then the binder that gave them:

Kd [1]: 68 nM
B1: P2E3 Fab (Fab, V domains shown)
VH: QVQLQESGPGLVKPSETLSLTCTVSGGSVSSSSYYWGWIRQPPGEGLEWIGSIYYSGSTYYNPSLKSRVTISVDTSKNQFSLKLSSVTAADTAVYYCATRLRGSFDYWGQGTLVTVSS
VL: DVVMTQSPLSLPVTPGEAASISCRSSQSLLHSNGYTYLDWYLQKPGQSPRLLIYSGSNRASGVPDRFSGSGSGTDFTLKISRVEAEDVGVYYCMQGTHWPYTFGQGTRLEIKR

Kd [1]: 29 nM | AMG510 IC50 [2]: ~74 nM
B2: P2B6 Fab (Fab, V domains shown)
VH: QLQLQESGPGLVKPSETLSLTCTVSGVSISSRSDHWGWVRQPPGKGLEWIGSISYSGSTYYNPSLKSRVTISVDTSKNQLSLKLTSVTAADTAVYYCARRALAQQLVMDVWGQGTTVTVSS
VL: DVVMTQSPLSLPVTPGEPASISCRSSQSLLRNNGYNYLDWYLQKPGQSPQLLIYLGSNRASGVPDRFSGSGSGRDFTLKISRVEAEDVGIYYCMQGAHWPYTFGQGTNLEISR

IC50 of free ARS1620 [3]: 445 nM
B3: P2B2 IgG-HRP conjugate (antibody, V domains shown)
VH: QVQLVESGGGVVQPGRYLRLSCATSGFTFSNYAMHWVRQAPGKGLEWVALISYDGSNKYYADSVKGRFTISRDKSTNALYLQMNSLRVEDTAVYYCARERVPWDYYGMDVWGQGTTVTVSS
VL: QSVVTQPPSVSAAPGHKVSISCSGSNSNIGHNYVSWYQQFPGTAPKLLVYRDDNRPSEVPDRFSGSKSGTSATLGITGLQTADEADYYCGTWDSTLQHVVFGGGTKLTVL
notes: also called V7-ARS-HLA-A*03:01-specific antibody P2B2

Kd [4]: 470 nM | Kd [5]: 43 nM
B4: P2B2 Fab (Fab, V domains shown)
VH: QVQLVESGGGVVQPGRYLRLSCATSGFTFSNYAMHWVRQAPGKGLEWVALISYDGSNKYYADSVKGRFTISRDKSTNALYLQMNSLRVEDTAVYYCARERVPWDYYGMDVWGQGTTVTVSS
VL: QSVVTQPPSVSAAPGHKVSISCSGSNSNIGHNYVSWYQQFPGTAPKLLVYRDDNRPSEVPDRFSGSKSGTSATLGITGLQTADEADYYCGTWDSTLQHVVFGGGTKLTVLS
notes: also called P282

AMG510 IC50 [2]: ~1500 nM | Kd [7]: 230 nM
B9: P2C1 Fab (Fab, V domains shown)
VH: EVQLVQSGAEVKKPGSSVKVSCKASGGTFSSYAISWVRQAPGQGLEWMGIINPSGGSTSYAQKFQGRVTMTRDTSTSTVYMELSSLRSEDTAVYYCARDLGTIFEANGAFDIWGQGTMVTVSS
VL: QSALTQPASVSGSPGQSITISCTGTSSDVGSYNLVSWYQQHPGKAPKLMIYDVSNRPSGVSNRFSGSKSGNTASLTISGLQAEDEADYYCSSYTSSSTLVFGTGTNVTVLG
